B1: TRIM55 (parent)
chain: FQASNPYLPTRGGTTMASGGRFRC

Variants of: B1
Assay: protein stability index of a GFP-peptide fusion (GPS, HEK-293T) (PSI 1-6); higher = more stable
Conditions: c terminus: a fixed tail appended
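Further: lentivirally expressed fusions sorted by FACS into six bins by GFP to DsRed ratio, PSI derived from sequencing read proportions per bin multiplied by bin number.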

| Variant | protein stability index |
| --- | --- |
| FQASNPYSPTRGGTTMASGGRFRC [L8S] | 2.7 |
| FQASNPYLPGRGGTTMASGGRFRC [T10G] | 2.03 |
| FQASNPYLPCRGGTTMASGGRFRC [T10C] | 2.17 |
| FQASNPYLPRRGGTTMASGGRFRC [T10R] | 1.56 |
| FQASNPYLPMRGGTTMASGGRFRC [T10M] | 3.72 |
| FQASNPYLPPRGGTTMASGGRFRC [T10P] | 2.37 |
| FQASNPYLPSRGGTTMASGGRFRC [T10S] | 1.97 |
| FQASNPYLPNRGGTTMASGGRFRC [T10N] | 2.23 |
| FQASNPYLPIRGGTTMASGGRFRC [T10I] | 1.81 |
| FQASNPYLPLRGGTTMASGGRFRC [T10L] | 2.4 |
| FQASNPYLPWRGGTTMASGGRFRC [T10W] | 2.81 |
| FQASNPYLPFRGGTTMASGGRFRC [T10F] | 2.19 |
| FQASNPYLPARGGTTMASGGRFRC [T10A] | 2.06 |
| FQASNPYLPHRGGTTMASGGRFRC [T10H] | 2.17 |
| FQASNPYLPKRGGTTMASGGRFRC [T10K] | 1.74 |
| FQASNPYLPDRGGTTMASGGRFRC [T10D] | 1.61 |
| FQASNPYLPERGGTTMASGGRFRC [T10E] | 2.99 |
| FQASNPYLPYRGGTTMASGGRFRC [T10Y] | 1.83 |
| FQASNPYLPVRGGTTMASGGRFRC [T10V] | 2.16 |
| FQASNPYLPQRGGTTMASGGRFRC [T10Q] | 1.93 |
| FQASNPYLPTIGGTTMASGGRFRC [R11I] | 2.46 |
| FQASNPYLPTTGGTTMASGGRFRC [R11T] | 1.65 |
| FQASNPYLPTLGGTTMASGGRFRC [R11L] | 2.15 |
| FQASNPYLPTVGGTTMASGGRFRC [R11V] | 1.89 |

| Variant | protein stability index |
| --- | --- |
| FQASNPYLPTPGGTTMASGGRFRC [R11P] | 2.13 |
| FQASNPYLPTHGGTTMASGGRFRC [R11H] | 1.57 |
| FQASNPYLPTGGGTTMASGGRFRC [R11G] | 2.02 |
| FQASNPYLPTCGGTTMASGGRFRC [R11C] | 2.76 |
| FQASNPYLPTFGGTTMASGGRFRC [R11F] | 2.01 |
| FQASNPYLPTQGGTTMASGGRFRC [R11Q] | 1.8 |
| FQASNPYLPTSGGTTMASGGRFRC [R11S] | 2.02 |
| FQASNPYLPTEGGTTMASGGRFRC [R11E] | 2.29 |
| FQASNPYLPTDGGTTMASGGRFRC [R11D] | 2 |
| FQASNPYLPTYGGTTMASGGRFRC [R11Y] | 2.28 |
| FQASNPYLPTMGGTTMASGGRFRC [R11M] | 2.11 |
| FQASNPYLPTWGGTTMASGGRFRC [R11W] | 2.68 |
| FQASNPYLPTNGGTTMASGGRFRC [R11N] | 1.86 |
| FQASNPYLPTAGGTTMASGGRFRC [R11A] | 2.05 |
| FQASNPYLPTRCGTTMASGGRFRC [G12C] | 2.23 |
| FQASNPYLPTRYGTTMASGGRFRC [G12Y] | 1.81 |
| FQASNPYLPTRMGTTMASGGRFRC [G12M] | 1.05 |
| FQASNPYLPTRAGTTMASGGRFRC [G12A] | 1.63 |
| FQASNPYLPTRHGTTMASGGRFRC [G12H] | 2.04 |
| FQASNPYLPTRPGTTMASGGRFRC [G12P] | 1.55 |
| FQASNPYLPTRWGTTMASGGRFRC [G12W] | 2.35 |
| FQASNPYLPTRQGTTMASGGRFRC [G12Q] | 1.34 |
| FQASNPYLPTRVGTTMASGGRFRC [G12V] | 3.34 |
| FQASNPYLPTRFGTTMASGGRFRC [G12F] | 2.86 |

| Variant | protein stability index |
| --- | --- |
| FQASNPYLPTRIGTTMASGGRFRC [G12I] | 2.77 |
| FQASNPYLPTRTGTTMASGGRFRC [G12T] | 2.13 |
| FQASNPYLPTRDGTTMASGGRFRC [G12D] | 2.06 |
| FQASNPYLPTRSGTTMASGGRFRC [G12S] | 2.61 |
| FQASNPYLPTRRGTTMASGGRFRC [G12R] | 2.79 |
| FQASNPYLPTREGTTMASGGRFRC [G12E] | 1.55 |
| FQASNPYLPTRNGTTMASGGRFRC [G12N] | 1.62 |
| FQASNPYLPTRLGTTMASGGRFRC [G12L] | 2.67 |
| FQASNPYLPTRGGVTMASGGRFRC [T14V] | 1.54 |
| FQASNPYLPTRGGDTMASGGRFRC [T14D] | 1.27 |
| FQASNPYLPTRGGGTMASGGRFRC [T14G] | 1.67 |
| FQASNPYLPTRGGMTMASGGRFRC [T14M] | 2.32 |
| FQASNPYLPTRGGPTMASGGRFRC [T14P] | 2.47 |
| FQASNPYLPTRGGATMASGGRFRC [T14A] | 1.93 |
| FQASNPYLPTRGGQTMASGGRFRC [T14Q] | 2.52 |
| FQASNPYLPTRGGITMASGGRFRC [T14I] | 2 |
| FQASNPYLPTRGGYTMASGGRFRC [T14Y] | 1.5 |
| FQASNPYLPTRGGCTMASGGRFRC [T14C] | 2.23 |
| FQASNPYLPTRGGKTMASGGRFRC [T14K] | 2.3 |
| FQASNPYLPTRGGFTMASGGRFRC [T14F] | 1.5 |
| FQASNPYLPTRGGSTMASGGRFRC [T14S] | 2.11 |
| FQASNPYLPTRGGHTMASGGRFRC [T14H] | 1.37 |
| FQASNPYLPTRGGLTMASGGRFRC [T14L] | 2.34 |
| FQASNPYLPTRGGNTMASGGRFRC [T14N] | 1.73 |

| Variant | protein stability index |
| --- | --- |
| FQASNPYLPTRGGETMASGGRFRC [T14E] | 2.09 |
| FQASNPYLPTRGGWTMASGGRFRC [T14W] | 1.32 |
| FQASNPYLPTRGGRTMASGGRFRC [T14R] | 1.41 |
| FQASNPYLPTRGGTHMASGGRFRC [T15H] | 1.18 |
| FQASNPYLPTRGGTMMASGGRFRC [T15M] | 1.72 |
| FQASNPYLPTRGGTQMASGGRFRC [T15Q] | 1.65 |
| FQASNPYLPTRGGTVMASGGRFRC [T15V] | 2.54 |
| FQASNPYLPTRGGTDMASGGRFRC [T15D] | 1.75 |
| FQASNPYLPTRGGTWMASGGRFRC [T15W] | 1.75 |
| FQASNPYLPTRGGTIMASGGRFRC [T15I] | 1.88 |
| FQASNPYLPTRGGTYMASGGRFRC [T15Y] | 1.73 |
| FQASNPYLPTRGGTPMASGGRFRC [T15P] | 1.52 |
| FQASNPYLPTRGGTNMASGGRFRC [T15N] | 2.3 |
| FQASNPYLPTRGGTFMASGGRFRC [T15F] | 1.57 |
| FQASNPYLPTRGGTEMASGGRFRC [T15E] | 1.48 |
| FQASNPYLPTRGGTRMASGGRFRC [T15R] | 2.93 |
| FQASNPYLPTRGGTGMASGGRFRC [T15G] | 2.85 |
| FQASNPYLPTRGGTLMASGGRFRC [T15L] | 1.69 |
| FQASNPYLPTRGGTSMASGGRFRC [T15S] | 1.69 |
| FQASNPYLPTRGGTKMASGGRFRC [T15K] | 2.19 |
| FQASNPYLPTRGGTAMASGGRFRC [T15A] | 2.24 |
| FQASNPYLPTRGGTCMASGGRFRC [T15C] | 1.28 |

Source: the supplement of paper PMC10567573
